Where no end group is shown, it is not given here.
Key:
[1] = biological target: T1, HCV core peptide 8 (hepatitis C virus, N-terminal biotin; C-terminal amide); test: peptide EIA, 2 ug/mL IgG;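 further: purified mouse IgG binding to individually well-coated synthetic peptides, detected with peroxidase anti-mouse IgG Fc and o-phenylenediamine, IgG incubated at least 1 h at room temperature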
T1 construct: range 15-29
Procedure: (§1) The coated plates were kept dry in a sealed foil pouch and stored at <10 degrees C. until ready for use. A peptide coated plate for each test antibody was blocked using 3% BSA in PBS with 0.5% Tween 20. The blocked plates were washed with distilled water and a 2 ug/mL solution of purified IgG from each test sample diluted in BSA block solution was added to each peptide coated well of the blocked plate and allowed to incubate at room temperature for at least one hour. Following incubation the plates were washed with distilled water. A 200 ng/mL solution of peroxidase labeled F(ab′)2 fragment goat anti-mouse IgG Fc fragment specific (Jackson Immunoresearch) in BSA block solution was added to all wells and incubated at room temperature for 30 minutes. The plates were washed with distilled water and o-phenylenediamine substrate was used as the chromagen to generate signal. Plates were read at 492 nm and the results were analyzed.

[2] = biological target: T2, HCV core peptide 13 (hepatitis C virus, N-terminal biotin; C-terminal amide); test: peptide EIA, 2 ug/mL IgG;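 further: purified mouse IgG binding to individually well-coated synthetic peptides, detected with peroxidase anti-mouse IgG Fc and o-phenylenediamine, IgG incubated at least 1 h at room temperature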
T2 construct: range 25-39
Procedure: as §1

[3] = biological target: T3, HCV core peptide 15 (hepatitis C virus, N-terminal biotin; C-terminal amide); test: peptide EIA, 2 ug/mL IgG;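 further: purified mouse IgG binding to individually well-coated synthetic peptides, detected with peroxidase anti-mouse IgG Fc and o-phenylenediamine, IgG incubated at least 1 h at room temperature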
T3 construct: range 29-43
Procedure: as §1

[4] = biological target: T4, HCV core peptide 19 (hepatitis C virus, N-terminal biotin; C-terminal amide); test: peptide EIA, 2 ug/mL IgG;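 further: purified mouse IgG binding to individually well-coated synthetic peptides, detected with peroxidase anti-mouse IgG Fc and o-phenylenediamine, IgG incubated at least 1 h at room temperature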
T4 construct: range 37-51
Procedure: as §1

[5] = biological target: T5, HCV core peptide 20 (hepatitis C virus, N-terminal biotin; C-terminal amide); test: peptide EIA, 2 ug/mL IgG
T5 construct: range 39-53
Procedure: as §1

[6] = biological target: T6, HCV core peptide 31 (hepatitis C virus, N-terminal biotin; C-terminal amide); test: peptide EIA, 2 ug/mL IgG
T6 construct: range 61-75
Procedure: as §1

[7] = biological target: T7, HCV core peptide 37 (hepatitis C virus, N-terminal biotin; C-terminal amide); test: peptide EIA, 2 ug/mL IgG
T7 construct: range 73-87
Procedure: as §1

[8] = biological target: T8, HCV core peptide 38 (hepatitis C virus, N-terminal biotin; C-terminal amide); test: peptide EIA, 2 ug/mL IgG
T8 construct: range 75-89
Procedure: as §1

[9] = biological target: HCV core peptide 46 (hepatitis C virus, N-terminal biotin; C-terminal amide); test: peptide EIA, 2 ug/mL IgG
Procedure: as §1

[10] = biological target: T9, HCV core peptide 48 (hepatitis C virus, HELM PEPTIDE1{[O=C1N[C@H]2[C@H](CS[C@H]2CCCCC(=O)[*:2])N1].S.G.S.G.G.W.L.L.S.P.R.G.S.R.P.S.W.G.P.[am]}$$$$V2.0; SMILES …); test: peptide EIA, 2 ug/mL IgG
T9 construct: also called aa 95-109
T9 peptide: SGSGGWLLSPRGSRPSWGP
Procedure: as §1

[11] = biological target: HCV core peptide 56 (hepatitis C virus, N-terminal biotin; C-terminal amide); test: peptide EIA, 2 ug/mL IgG
Procedure: as §1

[12] = biological target: HCV core peptide 63 (hepatitis C virus, N-terminal biotin; C-terminal amide); test: peptide EIA, 2 ug/mL IgG
Procedure: as §1

[13] = biological target: HCV core peptide 77 (hepatitis C virus, N-terminal biotin; C-terminal amide); test: peptide EIA, 2 ug/mL IgG
Procedure: as §1

[14] = biological target: T10, HCV core peptide 82 (hepatitis C virus, N-terminal biotin; C-terminal amide); test: peptide EIA, 2 ug/mL IgG
T10 construct: range 163-177
Procedure: as §1

[15] = biological target: HCV core peptide 89 (hepatitis C virus, N-terminal biotin; C-terminal amide); test: peptide EIA, 2 ug/mL IgG
Procedure: as §1

[16] = biological target: T11, C113WT biotin labeled HCV core peptide (hepatitis C virus, also: biotin labeled, position not given here); test: capture EIA with biotin peptide
T11 peptide: RGSRPSWGPTD

[17] = biological target: T12, C113T109N biotin labeled HCV core peptide (hepatitis C virus, also: biotin labeled, position not given here); test: capture EIA with biotin peptide
T12 construct: also called C113T110N
T12 peptide: RGSRPSWGPND

[18] = biological target: T13, Mut1T110N biotin labeled HCV core peptide (hepatitis C virus, biotin labeled (position not given)); test: capture EIA; Ab 500 ng/mL; bt-peptide 500 ng/mL
T13 peptide: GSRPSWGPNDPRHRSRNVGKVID

[19] = biological target: T14, Mut6T110S biotin labeled HCV core peptide (hepatitis C virus, biotin labeled (position not given)); test: capture EIA; Ab 500 ng/mL; bt-peptide 500 ng/mL
[20] = biological target: T11, C113WT biotin labeled HCV core peptide; test: capture EIA; Ab 500 ng/mL; bt-peptide 500 ng/mL
Procedure: (§2) Assay wells were coated with sheep anti-mouse IgG Fc specific antibody and incubated overnight. The coating solution was then removed; the wells blocked using BSA/tween in PBS and then washed with dH2O. […] Next, biotin labeled peptides (diluted to 500 ng/mL in block) were added, the plates incubated for 10 minutes while shaking at 700 rpm and then washed. Peroxidase conjugated streptavidin (diluted to 200 ng/mL in block) was then added to all assay wells, incubated for 20 minutes while shaking at 700 rpm and then washed. Finally, color was developed using OPD and signal quenched using 1N H₂SO₄. Signal was read at 492 nm.

[21] = biological target: T12, C113T109N biotin labeled HCV core …; test: capture EIA; Ab 500 ng/mL; bt-peptide 500 ng/mL
Procedure: as §2

[22] = biological target: T15, 92-133 biotin labeled HCV core peptide (hepatitis C virus, UniProt Q9WMX2 92-133, chain 1: biotin label (bt-pep). Its position and any spacer are not visible in the passages shown.); test: capture EIA; Ab 500 ng/mL; bt-peptide 500 ng/mL
T15 construct: Only the label 92-133 is printed
T15 peptide: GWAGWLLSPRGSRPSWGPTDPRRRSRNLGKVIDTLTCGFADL
Procedure: as §2

[23] = biological target: T16, WT1STHV biotin labeled HCV core peptide (hepatitis C virus, biotin labeled (position not given)); test: capture EIA; Ab 500 ng/mL; bt-peptide 500 ng/mL
T16 peptide: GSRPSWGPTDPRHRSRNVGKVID

[24] = biological target: T13, Mut1T110N biotin labeled HCV core …; test: capture EIA; Ab 2000 ng/mL; bt-peptide 500 ng/mL
Procedure: as §2

[25] = biological target: T14, Mut6T110S biotin labeled HCV core …; test: capture EIA; Ab 2000 ng/mL; bt-peptide 500 ng/mL
Procedure: as §2

[26] = biological target: T11, C113WT biotin labeled HCV core peptide; test: capture EIA; Ab 2000 ng/mL; bt-peptide 500 ng/mL
Procedure: as §2

[27] = biological target: T12, C113T109N biotin labeled HCV core …; test: capture EIA; Ab 2000 ng/mL; bt-peptide 500 ng/mL
Procedure: as §2

[28] = biological target: T15, 92-133 biotin labeled HCV core peptide; test: capture EIA; Ab 2000 ng/mL; bt-peptide 500 ng/mL
Procedure: as §2

[29] = biological target: T16, WT1STHV biotin labeled HCV core peptide; test: capture EIA; Ab 2000 ng/mL; bt-peptide 500 ng/mL
Procedure: as §2

B1: Neo4 mouse monoclonal antibody (antibody, V domains shown)
VH: QIQLKESGPAVIKPSQSLSLTCIVSGFSITSSVYCWQWIRQPPGKGLEWMGRICYDGSVDYSPSITSRGTISRDTSLNKVFFQLSSVTNEDTAMYYCSRENHIDYYDTTYPSFDVWGAGTTVTVSS
VL: DIVLTQSPASLIVSLGQRATISCRASKSVNEYGYTYMHWYQQKPGLPPKLLIYLASNLDSGVPARFSGSGSGTDFTLNIHPVEEEDAATYYCQHSRELPYTFGGGTKLEIKR
notes: Mouse hybridoma antibody, isotype IgG1, purified with Protein G; also called HCV Neo4
[1]
  OD (A492 nm): 0.06 OD
[2]
  OD (A492 nm): 0.05 OD
[3]
  OD (A492 nm): 0.06 OD
[4]
  OD (A492 nm): 0.05 OD
[5]
  OD (A492 nm): 0.05 OD
[6]
  OD (A492 nm): 0.05 OD
[7]
  OD (A492 nm): 0.04 OD
[8]
  OD (A492 nm): 0.05 OD
[9]
  OD (A492 nm): 0.06 OD
[10]
  OD (A492 nm): 0.04 OD
[11]
  OD (A492 nm): 0.04 OD
[12]
  OD (A492 nm): 0.04 OD
[13]
  OD (A492 nm): 0.05 OD
[14]
  OD (A492 nm): 0.04 OD
[15]
  OD (A492 nm): 0.05 OD
[16]
  binding result: no binding
[17]
  binding result: no binding
[18]
  signal at 492 nm: 0.065 A492
[19]
  signal at 492 nm: 1.17 A492
[20]
  signal at 492 nm: 0.0561 A492
[21]
  signal at 492 nm: 0.0803 A492
[22]
  signal at 492 nm: 1.48 A492
[23]
  signal at 492 nm: 1.91 A492
[24]
  signal at 492 nm: 0.0882 A492
[25]
  signal at 492 nm: 1.17 A492
[26]
  signal at 492 nm: 0.0766 A492
[27]
  signal at 492 nm: 0.059 A492
[28]
  signal at 492 nm: 1.31 A492
[29]
  signal at 492 nm: 1.9 A492

Source: patent publication US20190170753A1 (ICAHN SCHOOL OF MEDICINE AT MOUNT SINAI, published 2019)
